Results reported in US20260176324A1 (published 2026).

T1: KRAS G12V peptide on HLA-A*11:01 (human)
T1 peptide: VVGAVGVGK

T2: KRAS G12V peptide on HLA-A*11:01 (human)
T2 peptide: VVVGAVGVGK


Columns and labels:
[1] = biological target: T1, KRAS G12V peptide on HLA-A*11:01; assay: multimer staining
[2] = biological target: T2, KRAS G12V peptide on HLA-A*11:01; assay: cytokine release
Method: (§1) The affinity assay of TCR-T cells was performed as follows. Antigen-presenting cells (HLA-A*11:01 overexpressing T2 cells or K562 cells) were collected, and counted. […] 1 mL of cell suspension was added to each well of a 24-well plate, respectively. […] The cells were incubated in an incubator (37° C., 5% CO₂) for 2 h. After incubation, the antigen-presenting cells were collected and washed, and 100 μl of the antigen-presenting cells at 1E6/mL were added to corresponding wells of 96-well plates. […] Various nwTCR-T cells were co-cultured with the antigen-presenting cells (37° C., 5% CO₂) for 16 h respectively.

[3] = biological target: T2, KRAS G12V peptide on HLA-A*11:01; assay: multimer staining
[4] = biological target: T1, KRAS G12V peptide on HLA-A*11:01; assay: cytokine release
Method: as §1

Row | binding result [1] | binding result [2] | binding result [3] | binding result [4] | Binder
1 | recognises |  |  |  | nwTCR-2561 (TCR, V domains shown) Valpha: GNSVTQMEGPVTLSEEAFLTINCTYTATGYPSLFWYVQYPGEGLQLLLKATKADDKGSNKGFEATYRKETTSFHLEKGSVQVSDSAVYFCALPAGGGADGLTFGKGTHLIIQP Vbeta: GAGVSQSPSNKVTEKGKDVELRCDPISGHTALYWYRQSLGQGLEFLIYFQGNSAPDKSGLPSDRFSAERTGGSVSTLTIQRTQQEDSAVYLCASSFGTSGDQYEQYFGPGTRLTVT
2 | recognises | recognises |  |  | nwTCR-2595 (TCR, V domains shown) Valpha: ILNVEQSPQSLHVQEGDSTNFTCSFPSSNFYALHWYRWETAKSPEALFVMTLNGDEKKKGRISATLNTKEGYSYLYIKGSQPEDSATYLCAFNNQGGKLIFGQGTELSVKP Vbeta: EAQVTQNPRYLITVTGKKLTVTCSQNMNHEYMSWYRQDPGLGLRQIYYSMNVEVTDKGDVPEGYKVSRKEKRNFPLILESPSPNQTSLYFCASSSGTGGGAEAFFGQGTRLTVV
3 |  |  | recognises |  | nwTCR-2241 (TCR, V domains shown) Valpha: ELKVEQNPLFLSMQEGKNYTIYCNYSTTSDRLYWYRQDPGKSLESLFVLLSNGAVKQEGRLMASLDTKARLSTLHITAAVHDLSATYFCAVDKAAGNKLTFGGGTRVLVKP Vbeta: GEEVAQTPKHLVRGEGQKAKLYCAPIKGHSYVFWYQQVLKNEFKFLISFQNENVFDETGMPKERFSAKCLPNSPCSLEIQATKLEDSAVYFCASSPHHRYEQYFGPGTRLTVT
4 |  |  | recognises | recognises | nwTCR-0127 (TCR, V domains shown) Valpha: DQQVKQNSPSLSVQEGRISILNCDYTNSMFDYFLWYKKYPAEGPTFLISISSIKDKNEDGRFTVFLNKSAKHLSLHIVPSQPGDSAVYFCAGYQGGYKLSFGAGTTVTVRA Vbeta: EAQVTQNPRYLITVTGKKLTVTCSQNMNHEYMSWYRQDPGLGLRQIYYSMNVEVTDKGDVPEGYKVSRKEKRNFPLILESPSPNQTSLYFCASSTRDRDNEQFFGPGTRLTVL
5 |  |  | recognises | recognises | nwTCR-0126 (TCR, V domains shown) Valpha: AQKVTQAQTEISVVEKEDVTLDCVYETRDTTYYLFWYKQPPSGELVFLIRRNSFDEQNEISGRYSWNFQKSTSSFNFTITASQVVDSAVYFCALSDPRYSGGGADGLTFGKGTHLIIQP Vbeta: DSGVTQTPKHLITATGQRVTLRCSPRSGDLSVYWYQQSLDQGLQFLIQYYNGEERAKGNILERFSAQQFPDLHSELNLSSLELGDSALYFCASSPRGGDSILDTQYFGPGTRLTVL
6 | recognises |  |  |  | nwTCR-2424 (TCR, V domains shown) Valpha: QKEVEQNSGPLSVPEGAIASLNCTYSDRGSQSFFWYRQYSGKSPELIMFIYSNGDKEDGRFTAQLNKASQYVSLLIRDSQPSDSATYLCARKKTSYDKVIFGPGTSLSVIP Vbeta: DSGVTQTPKHLITATGQRVTLRCSPRSGDLSVYWYQQSLDQGLQFLIQYYNGEERAKGNILERFSAQQFPDLHSELNLSSLELGDSALYFCASSLGDSEQFFGPGTRLTVL
7 |  |  | recognises |  | nwTCR-1862 (TCR, V domains shown) Valpha: GEDVEQSLFLSVREGDSSVINCTYTDSSSTYLYWYKQEPGAGLQLLTYIFSNMDMKQDQRLTVLLNKKDKHLSLRIADTQTGDSAIYFCAERGTDSWGKLQFGAGTQVVVTP Vbeta: GAVVSQHPSWVICKSGTSVKIECRSLDFQATTMFWYRQFPKQSLMLMATSNEGSKATYEQGVEKDKFLINHASLTLSTLTVTSAHPEDSSFYICSARFANYYEQYFGPGTRLTVT
8 |  |  | recognises | recognises | nwTCR-0125 (TCR, V domains shown) Valpha: AQKVTQAQTEISVVEKEDVTLDCVYETRDTTYYLFWYKQPPSGELVFLIRRNSFDEQNEISGRYSWNFQKSTSSFNFTITASQVVDSAVYFCARDQTGANNLFFGTGTRLTVIP Vbeta: DVKVTQSSRYLVKRTGEKVFLECVQDMDHENMFWYRQDPGLGLRLIYFSYDVKMKEKGDIPEGYSVSREKKERFSLILESASTNQTSMYLCASSPPHLASGASTDTQYFGPGTRLTVL
9 | recognises |  |  |  | nwTCR-2310 (TCR, V domains shown) Valpha: SQQGEEDPQALSIQEGENATMNCSYKTSINNLQWYRQNSGRGLVHLILIRSNEREKHSGRLRVTLDTSKKSSSLLITASRAADTASYFCATDGGGGADGLTFGKGTHLIIQP Vbeta: DSGVTQTPKHLITATGQRVTLRCSPRSGDLSVYWYQQSLDQGLQFLIQYYNGEERAKGNILERFSAQQFPDLHSELNLSSLELGDSALYFCASSLHRDSDTEAFFGQGTRLTVV
10 | recognises |  |  |  | nwTCR-2390 (TCR, V domains shown) Valpha: SQQGEEDPQALSIQEGENATMNCSYKTSINNLQWYRQNSGRGLVHLILIRSNEREKHSGRLRVTLDTSKKSSSLLITASRAADTASYFCATDSGGGADGLTFGKGTHLIIQP Vbeta: DSGVTQTPKHLITATGQRVTLRCSPRSGDLSVYWYQQSLDQGLQFLIQYYNGEERAKGNILERFSAQQFPDLHSELNLSSLELGDSALYFCASSHGRDSTDTQYFGPGTRLTVL
11 |  |  | recognises |  | nwTCR-2308 (TCR, V domains shown) Valpha: KDQVFQPSTVASSEGAVVEIFCNHSVSNAYNFFWYLHFPGCAPRLLVKGSKPSQQGRYNMTYERFSSSLLILQVREADAAVYYCAGSNDYKLSFGAGTTVTVRA Vbeta: EAQVTQNPRYLITVTGKKLTVTCSQNMNHEYMSWYRQDPGLGLRQIYYSMNVEVTDKGDVPEGYKVSRKEKRNFPLILESPSPNQTSLYFCASSTSPYNEQFFGPGTRLTVL
12 |  |  | recognises | recognises | nwTCR-2563 (TCR, V domains shown) Valpha: SQQGEEDPQALSIQEGENATMNCSYKTSINNLQWYRQNSGRGLVHLILIRSNEREKHSGRLRVTLDTSKKSSSLLITASRAADTASYFCATDRTGGYNKLIFGAGTRLAVHP Vbeta: ETGVTQSPTHLIKTRGQQVTLRCSSQSGHNTVSWYQQALGQGPQFIFQYYREEENGRGNFPPRFSGLQFPNYSSELNVNALELDDSALYLCASSLQTGDEQYFGPGTRLTVT
13 | recognises |  |  |  | nwTCR-2392 (TCR, V domains shown) Valpha: DQQVKQNSPSLSVQEGRISILNCDYTNSMFDYFLWYKKYPAEGPTFLISISSIKDKNEDGRFTVFLNKSAKHLSLHIVPSQPGDSAVYFCAASYAGSARQLTFGSGTQLTVLP Vbeta: GAGVSQSPSNKVTEKGKDVELRCDPISGHTALYWYRQRLGQGLEFLIYFQGNSAPDKSGLPSDRFSAERTGESVSTLTIQRTQQEDSAVYLCASSPGGNYGYTFGSGTRLTVV
14 | recognises |  |  |  | nwTCR-2629 (TCR, V domains shown) Valpha: AQSVTQLDSHVSVSEGTPVLLRCNYSSSYSPSLFWYVQHPNKGLQLLLKYTSAATLVKGINGFEAEFKKSETSFHLTKPSAHMSDAAEYFCVVSVWTDKLIFGTGTRLQVFP Vbeta: GAVVSQHPSWVICKSGTSVKIECRSLDFQATTMFWYRQFPKQSLMLMATSNEGSKATYEQGVEKDKFLINHASLTLSTLTVTSAHPEDSSFYICSANRDFGIYEQYFGPGTRLTVT
15 |  |  | recognises | recognises | nwTCR-1708 (TCR, V domains shown) Valpha: QKEVEQNSGPLSVPEGAIASLNCTYSDRGSQSFFWYRQYSGKSPELIMFIYSNGDKEDGRFTAQLNKASQYVSLLIRDSQPSDSATYLCAVNMPGNMLTFGGGTRLMVKP Vbeta: DARVTQTPRDKVTEMGQEVTMRCQPILGHNTVFWYRQTMMQGLELLAYFRNRAPLDDSGMPKDRFSAEMPDATLATLKIQPSEPRDSAVYFCASGPEGLDNEQFFGPGTRLTVL
